Patent US20240132624A1 (Ablynx, published 2024)
Positions count from the first letter of the chain named.

B1: T0263018B11 G26L (VHH, name in Kabat numbering)
VHH: EVQLVESGGGVVQPGGSLRLSCAASLFTFSSYAMYWVRQAPGKGLEWVSAISSGGGSTDYADSVKGRFTISRDNSKNTLYLQMNSLRPEDTALYYCAADTLYTSLTWYSYWGQGTLVTVSS
notes: FLAG3-His6 tagged
B2: T0263018B11 F27I (VHH, name in Kabat numbering)
VHH: B1 VHH with L26G, F27I
notes: FLAG3-His6 tagged
B3: T0263018B11 A33P (VHH, name in Kabat numbering)
VHH: B1 VHH with L26G, A33P
notes: FLAG3-His6 tagged
B4: T0263018B11 A33H (VHH, name in Kabat numbering)
VHH: B1 VHH with L26G, A33H
notes: FLAG3-His6 tagged
B5: T0263018B11 T57M (VHH, name in Kabat numbering)
VHH: B1 VHH with L26G, T58M
notes: FLAG3-His6 tagged
B6: T0263018B11 T57E (VHH, name in Kabat numbering)
VHH: B1 VHH with L26G, T58E
notes: FLAG3-His6 tagged
B7: T0263018B11 A93T (VHH, name in Kabat numbering)
VHH: B1 VHH with L26G, A97T
notes: FLAG3-His6 tagged
B8: T0263018B11 T28G (VHH, name in Kabat numbering)
VHH: B1 VHH with L26G, T28G
notes: FLAG3-His6 tagged
B9: T0263018B11 F29I (VHH, name in Kabat numbering)
VHH: B1 VHH with L26G, F29I
notes: FLAG3-His6 tagged
B10: T0263018B11 T57D (VHH, name in Kabat numbering)
VHH: B1 VHH with L26G, T58D
notes: FLAG3-His6 tagged
B11: T0263018B11 S100W (VHH, name in Kabat numbering)
VHH: B1 VHH with L26G, S104W
notes: FLAG3-His6 tagged
B12: T0263018B11 T57R (VHH, name in Kabat numbering)
VHH: B1 VHH with L26G, T58R
notes: FLAG3-His6 tagged
B13: T0263018B11 Y32M (VHH, name in Kabat numbering)
VHH: B1 VHH with L26G, Y32M
notes: FLAG3-His6 tagged
B14: T0263018B11 S30M (VHH, name in Kabat numbering)
VHH: B1 VHH with L26G, S30M
notes: FLAG3-His6 tagged
B15: T0263018B11 T96G (VHH, name in Kabat numbering)
VHH: B1 VHH with L26G, T100G
notes: FLAG3-His6 tagged
B16: T0263018B11 S56E (VHH, name in Kabat numbering)
VHH: B1 VHH with L26G, S57E
notes: FLAG3-His6 tagged
B17: T0263018B11 S100A (VHH, name in Kabat numbering)
VHH: B1 VHH with L26G, S104A
notes: FLAG3-His6 tagged
B18: T0263018B11 D58A (VHH, name in Kabat numbering)
VHH: B1 VHH with L26G, D59A
notes: FLAG3-His6 tagged
B19: T0263018B11 F29Q (VHH, name in Kabat numbering)
VHH: B1 VHH with L26G, F29Q
notes: FLAG3-His6 tagged
B20: T0263018B11 Y32N (VHH, name in Kabat numbering)
VHH: B1 VHH with L26G, Y32N
notes: FLAG3-His6 tagged
B21: T0263018B11 T57G (VHH, name in Kabat numbering)
VHH: B1 VHH with L26G, T58G
notes: FLAG3-His6 tagged
B22: T0263018B11 F29P (VHH, name in Kabat numbering)
VHH: B1 VHH with L26G, F29P
notes: FLAG3-His6 tagged
B23: T0263018B11 T57H (VHH, name in Kabat numbering)
VHH: B1 VHH with L26G, T58H
notes: FLAG3-His6 tagged
B24: T0263018B11 S30P (VHH, name in Kabat numbering)
VHH: B1 VHH with L26G, S30P
notes: FLAG3-His6 tagged
B25: T0263018B11 Y98W (VHH, name in Kabat numbering)
VHH: B1 VHH with L26G, Y102W
notes: FLAG3-His6 tagged
B26: T0263018B11 G26A (VHH, name in Kabat numbering)
VHH: B1 VHH with L26A
notes: FLAG3-His6 tagged
B27: T0263018B11 F29Y (VHH, name in Kabat numbering)
VHH: B1 VHH with L26G, F29Y
notes: FLAG3-His6 tagged
B28: T0263018B11 S31A (VHH, name in Kabat numbering)
VHH: B1 VHH with L26G, S31A
notes: FLAG3-His6 tagged
B29: T0263018B11 T57K (VHH, name in Kabat numbering)
VHH: B1 VHH with L26G, T58K
notes: FLAG3-His6 tagged
B30: T0263018B11 D58T (VHH, name in Kabat numbering)
VHH: B1 VHH with L26G, D59T
notes: FLAG3-His6 tagged
B31: T0263018B11 W100cM (VHH, name in Kabat numbering)
VHH: B1 VHH with L26G, W107M
notes: FLAG3-His6 tagged
B32: T0263018B11 L100aV (VHH, name in Kabat numbering)
VHH: B1 VHH with L26G, L105V
notes: FLAG3-His6 tagged
B33: T0263018B11 D58S (VHH, name in Kabat numbering)
VHH: B1 VHH with L26G, D59S
notes: FLAG3-His6 tagged
B34: T0263018B11 T28M (VHH, name in Kabat numbering)
VHH: B1 VHH with L26G, T28M
notes: FLAG3-His6 tagged
B35: T0263018B11 G54V (VHH, name in Kabat numbering)
VHH: B1 VHH with L26G, G55V
notes: FLAG3-His6 tagged
B36: T0263018B11 G54D (VHH, name in Kabat numbering)
VHH: B1 VHH with L26G, G55D
notes: FLAG3-His6 tagged
B37: T0263018B11 Y98L (VHH, name in Kabat numbering)
VHH: B1 VHH with L26G, Y102L
notes: FLAG3-His6 tagged
B38: T0263018B11 F27M (VHH, name in Kabat numbering)
VHH: B1 VHH with L26G, F27M
notes: FLAG3-His6 tagged
B39: T0263018B11 W100cE (VHH, name in Kabat numbering)
VHH: B1 VHH with L26G, W107E
notes: FLAG3-His6 tagged
B40: T0263018B11 T96W (VHH, name in Kabat numbering)
VHH: B1 VHH with L26G, T100W
notes: FLAG3-His6 tagged
B41: T0263018B11 G54T (VHH, name in Kabat numbering)
VHH: B1 VHH with L26G, G55T
notes: FLAG3-His6 tagged
B42: T0263018B11 S31G (VHH, name in Kabat numbering)
VHH: B1 VHH with L26G, S31G
notes: FLAG3-His6 tagged
B43: T0263018B11 G26K (VHH, name in Kabat numbering)
VHH: B1 VHH with L26K
notes: FLAG3-His6 tagged
B44: T0263018B11 Y32A (VHH, name in Kabat numbering)
VHH: B1 VHH with L26G, Y32A
notes: FLAG3-His6 tagged
B45: T0263018B11 S31V (VHH, name in Kabat numbering)
VHH: B1 VHH with L26G, S31V
notes: FLAG3-His6 tagged
B46: T0263018B11 T57Q (VHH, name in Kabat numbering)
VHH: B1 VHH with L26G, T58Q
notes: FLAG3-His6 tagged
B47: T0263018B11 S56G (VHH, name in Kabat numbering)
VHH: B1 VHH with L26G, S57G
notes: FLAG3-His6 tagged
B48: T0263018B11 S100L (VHH, name in Kabat numbering)
VHH: B1 VHH with L26G, S104L
notes: FLAG3-His6 tagged
B49: T0263018B11 T28S (VHH, name in Kabat numbering)
VHH: B1 VHH with L26G, T28S
notes: FLAG3-His6 tagged
B50: T0263018B11 A33N (VHH, name in Kabat numbering)
VHH: B1 VHH with L26G, A33N
notes: FLAG3-His6 tagged
B51: T0263018B11 T57A (VHH, name in Kabat numbering)
VHH: B1 VHH with L26G, T58A
notes: FLAG3-His6 tagged

Molecular target: T1, human FcRn/b2M (human, UniProt P61769 21-119, biotinylated)
T1 construct: bought recombinant biotinylated protein (ACRO FCM-H82W4 or Immunitrack ITF01); also called hFcRn; hFcRn/hb2M
T1 sequence (chain, as listed by the source limits assumed, chain 1 of 2): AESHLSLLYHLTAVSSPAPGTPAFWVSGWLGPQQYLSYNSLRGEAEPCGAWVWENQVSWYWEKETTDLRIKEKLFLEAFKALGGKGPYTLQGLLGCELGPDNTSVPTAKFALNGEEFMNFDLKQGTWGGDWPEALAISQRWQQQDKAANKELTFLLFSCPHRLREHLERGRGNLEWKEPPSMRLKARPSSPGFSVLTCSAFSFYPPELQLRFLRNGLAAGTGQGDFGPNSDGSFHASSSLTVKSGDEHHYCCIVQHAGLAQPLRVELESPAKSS
T1 sequence (P61769 21-119 limits assumed, chain 2 of 2): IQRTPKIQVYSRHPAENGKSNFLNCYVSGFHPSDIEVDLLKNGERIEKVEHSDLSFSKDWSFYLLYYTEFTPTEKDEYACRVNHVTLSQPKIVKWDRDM
Assay: SPR pH 7.4;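 note: surface plasmon resonance kinetics, periplasmic extracts diluted 1:10 flowed over immobilized target at 25 °C, 120 s association then 600–3600 s dissociation, buffer with 150 mM NaCl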
Protocol: (§1) All kinetic measurements have been performed on ProteOn XPR36 (BioRad Laboratories, Inc.), MASS-2 (Sierra sensors, Gmbh) or SPR-32 (Bruker Corporation). […] The phytip purified periplasmic extracts were diluted 1:10 in running buffer (CPA+150 mM NaCl+0.005% Tw20 at pH 5.5, pH 6.0 or pH 7.4) and injected over the ligand surfaces (association: 120 s at 45 μL/min; dissociation: 600s-3600 s at 45 μL/min). Experiments were carried out at 25° C.

Row | Binder | koff [s⁻¹]
1 | B1 | 0.041
2 | B2 | 0.045
3 | B3 | 0.041

Molecular target: T2, cyno FcRn/b2M (cyno, UniProt Q8SPV9 24-297; Q8SPW0 21-119, biotinylated)
T2 construct: bought recombinant biotinylated protein (Immunitrack ITF05 or ACRO FCM-C82W5); also called cFcRn; cFcRn/cb2M
T2 sequence (Q8SPV9 24-297 limits assumed, chain 1 of 2): as the sequence (chain, as listed by the source limits assumed, chain 1 of 2) above, with N39D, E44Q, G99S, S189G, S190N, L217M, S269T counted along it
T2 sequence (Q8SPW0 21-119 limits assumed, chain 2 of 2): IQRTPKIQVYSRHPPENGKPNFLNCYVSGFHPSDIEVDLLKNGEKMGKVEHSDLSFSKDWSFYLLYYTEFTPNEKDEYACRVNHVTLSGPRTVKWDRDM
Assay: SPR pH 7.4;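 note: surface plasmon resonance kinetics, periplasmic extracts diluted 1:10 flowed over immobilized target at 25 °C, 120 s association then 600–3600 s dissociation, buffer with 150 mM NaCl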
Protocol: as §1

Row | Binder | koff [s⁻¹]
4 | B4 | 0.037
5 | B5 | 0.027
6 | B6 | 0.024
7 | B7 | 0.12
8 | B8 | 0.028
9 | B9 | 0.083
10 | B10 | 0.026
11 | B11 | 0.015
12 | B12 | 0.026
13 | B13 | 0.18
14 | B14 | 0.022
15 | B15 | 0.21
16 | B1 | 0.054
17 | B2 | 0.031
18 | B16 | 0.1
19 | B17 | 0.0099
20 | B18 | 0.036
21 | B19 | 0.088
22 | B20 | 0.083
23 | B21 | 0.04
24 | B3 | 0.045

Molecular target: T1, human FcRn/b2M
Assay: SPR pH 6.0;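 note: surface plasmon resonance kinetics at 25 °C, diluted periplasmic extracts injected over immobilized ligand surfaces, 120 s association then 600–3600 s dissociation, running buffer containing 150 mM NaCl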
Protocol: as §1

Row | Binder | koff [s⁻¹]
25 | B4 | 0.00076
26 | B5 | 0.00098
27 | B6 | 0.00076
28 | B7 | 0.0025
29 | B8 | 0.00075
30 | B10 | 0.00073
31 | B11 | 0.00062
32 | B12 | 0.00086
33 | B13 | 0.006
34 | B14 | 0.00074
35 | B15 | 0.014
36 | B16 | 0.0026
37 | B17 | 0.00025
38 | B22 | 0.0026
39 | B18 | 0.0089
40 | B19 | 0.0021
41 | B20 | 0.0025
42 | B21 | 0.0013

Molecular target: T2, cyno FcRn/b2M
Assay: SPR pH 6.0;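 note: surface plasmon resonance kinetics at 25 °C, diluted periplasmic extracts injected over immobilized ligand surfaces, 120 s association then 600–3600 s dissociation, running buffer containing 150 mM NaCl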
Protocol: as §1

Row | Binder | koff [s⁻¹]
43 | B4 | 0.00077
44 | B5 | 0.0007
45 | B6 | 0.00055
46 | B7 | 0.0019
47 | B8 | 0.0002
48 | B9 | 0.0015
49 | B10 | 0.00063
50 | B11 | 0.00029
51 | B12 | 0.00071
52 | B13 | 0.0025
53 | B14 | 0.00069
54 | B15 | 0.0084
55 | B1 | 0.00087
56 | B2 | 0.00036
57 | B16 | 0.0019
58 | B17 | 0.00021
59 | B22 | 0.0019
60 | B18 | 0.0026
61 | B19 | 0.0017
62 | B20 | 0.0018
63 | B21 | 0.0011
64 | B3 | 0.00099

Molecular target: T2, cyno FcRn/b2M
Assay: SPR off-rate; pH 7.4 vs pH 6.0;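 note: surface plasmon resonance with diluted periplasmic extracts flowed over ligand surfaces, 120 s association and 600–3600 s dissociation at 25 °C, running buffer containing 150 mM NaCl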
Protocol: as §1

Row | Binder | kd ratio pH 7.4/6.0
65 | B23 | 41
66 | B24 | 41
67 | B25 | 45
68 | B26 | 116
69 | B27 | 45
70 | B28 | 61
71 | B29 | 40
72 | B30 | 10
73 | B31 | 59
74 | B32 | 39
75 | B33 | 12
76 | B34 | 64
77 | B35 | 31
78 | B36 | 41
79 | B37 | 36
80 | B38 | 69
81 | B39 | 71
82 | B40 | 54
83 | B41 | 35
84 | B42 | 58
85 | B43 | 101
86 | B44 | 70
87 | B45 | 89
88 | B46 | 34
89 | B47 | 54
90 | B48 | 62
91 | B49 | 85
92 | B50 | 49
93 | B51 | 36
